From patent publication US20100323397

Target: T1, wild type (WT) VirD2 protein, Agrobacterium tumefaciens str. C58 (UniProt P18592)
T1 sequence: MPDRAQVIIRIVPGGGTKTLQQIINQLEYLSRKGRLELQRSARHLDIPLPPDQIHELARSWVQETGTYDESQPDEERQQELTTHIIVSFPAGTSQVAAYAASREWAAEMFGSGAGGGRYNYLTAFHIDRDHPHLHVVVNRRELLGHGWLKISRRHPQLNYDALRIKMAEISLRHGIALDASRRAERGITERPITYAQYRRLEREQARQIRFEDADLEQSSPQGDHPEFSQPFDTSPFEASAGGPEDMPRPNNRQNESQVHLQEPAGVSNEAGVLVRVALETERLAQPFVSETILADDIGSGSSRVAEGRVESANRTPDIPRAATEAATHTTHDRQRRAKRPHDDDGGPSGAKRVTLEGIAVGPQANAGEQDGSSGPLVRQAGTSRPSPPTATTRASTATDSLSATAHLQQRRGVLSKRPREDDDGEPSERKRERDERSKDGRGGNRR

plant caspase (putative subtilisin-like (serine) protease, PSLP) from tobacco
Western (immunoblotting) analysis of degradation by plant caspase: degradation of wild type (WT) VirD2 protein by plant caspase (lane 2)
